Source: patent US20240076412A1 (NATIONAL INSTITUTE OF BIOLOGICAL SCIENCES BEIJING, published 2024)
Read-outs that look alike come from different tables or passages of the source. Values belong to the binder of their own block, whether it stands above or below them.

Legend:
[1] = biological target: T1, hCD47 protein (SPR analyte of Example 2) (human, UniProt Q08722 19-139, limits assumed); assay: SPR (Biacore T200), IgG1 captured on protein A/G CM5 chip, human CD47 as analyte
Method: (§1) All SPR analyses were performed on a Biacore T200 instrument (Biacore, GE Healthcare). […] The association rates (Kₒₙ), dissociation rates (Koff), and affinity constants (KD) were calculated using BiacoreT200 evaluation software.

[2] = biological target: T2, extracellular domain of human CD47 (CD47-ECD), residues 1-118, with His6 tag and Avi tag (human, UniProt Q08722 19-136, biotin modification at the C-terminus (Avi tag, BirA) in the form called CD47-Bio); assay: SPR (Biacore T200), IgG1 captured on CM5 chip, CD47 as analyte; the column head also prints x 10^6, not applied because kd/ka of the cells gives the KD cell in M [Con't]
T2 construct: also called CD47-ECD-His6; CD47-Bio; not shown: His6 tag and Avi tag from the vector

[3] = biological target: T2, extracellular domain of human CD47 …; assay: CD47 binding ELISA, bio-CD47 captured on neutravidin, full-length IgG1
Method: (§2) CD47 binding ELISA: 2 μg/mL of neutravidin (Sigma) in phosphate buffered saline (PBS) was coated in U-bottom 96-well plate (Nunc, MaxiSorp™), 100 μL per well, at 4° C. overnight or 37° C. for 1 hour. 2 μg/mL of bio-CD47 in PBS containing 2% nonfat milk were then captured onto the plates at 100 μL per well by incubation at 30° C. for 1 hour. […] In between each incubation step, the ELISA plate was washed for 6 times with PBST solution (0.05% Tween20 containing PBS) at 200 μL per well. Followed by HRP-conjugated antibody incubation, the ELISA signal was developed by incubating with TMB substrate (Sigma) for 5-10 mins at 30° C. and then stop the reaction with 2M H₂SO₄ at 50 μL per well. The absorbance at 450 nm was read by a microplate reader (Bio-Rad). For scFv-Fc or IgG1 based ELISA, the method was basically the same as described above for phage-scFvs except the bound antibodies were detected by HRP-conjugated mouse anti-human IgG Fc antibody (Sigma).
(§3) In FIG. 3, A. Antibodies in the form of full-length IgG1 were 3-fold serial diluted (starting at 10 nM, 12 concentrations total). B. Antibodies in the form of full-length IgG1 were 3-fold serial diluted (starting at 40 nM, 12 concentrations total).

[4] = biological target: T2, extracellular domain of human CD47 …; assay: SIRPα competition ELISA, CD47-ECD-His6 coated, competitor 0.8 nM biotinylated SIRPα-d1-mFc
Method: (§4) The wash, development and read steps are the same as hCD47 binding ELISA. The OD450 values were transformed to Inhibition % in data analysis.
(§5) B. Antibodies in the form of full-length IgG1 were 3-fold serial diluted (starting at 40 nM, 12 concentrations total).

[5] = biological target: T2, extracellular domain of human CD47 …; assay: CD47 binding ELISA, bio-CD47 captured on neutravidin, full-length IgG1; remark: listed apart in the source
Method: as §2, §3

[6] = biological target: T3, hGPC3-ΔHS (human, UniProt P51654 25-559, limits assumed); assay: SPR, antibody captured by anti-human Fc antibodies on CM5 chip, hGPC3 injected first, then hCD47
T3 construct: also called hGPC3-ΔHS protein

[7] = biological target: T2, extracellular domain of human CD47 …; assay: SPR (Biacore T200), IgG1 captured on CM5 chip, CD47 as analyte; the column head prints KD (nM), but the cell equals kd/ka in M [Con't]
Method: (§6) 1 μg/mL of anti-CD47 full length IgG1 antibodies were captured onto a CM5 chip for 30 s at 10 μl/min. CD47 in 2-fold serial dilutions (starting at 100 nmol, seven concentrations total) were injected over the antibody-bound surface for 120 s at 30 μl/min followed by a 240 s dissociation phase. After each cycle, the surface was regenerated with magnesium chloride.

[8] = biological target: T2, extracellular domain of human CD47 …; assay: SIRPα competition ELISA, CD47-ECD-His6 coated, competitor 0.5 nM biotinylated SIRPα-d1-mFc
Method: as §4, §5

[9] = biological target: T2, extracellular domain of human CD47 …; assay: SPR (Biacore T200), IgG1 captured on CM5 chip, CD47 as analyte [Con't]
Method: SPR was performed on a Biacore T200. 1 μg/mL of anti-CD47 full length IgG1 antibodies were captured onto a CM5 chip for 30 s at 10 μl/min. CD47 in 2-fold serial dilutions (starting at 100 nmol, seven concentrations total) were injected over the antibody-bound surface for 120 s at 30 μl/min followed by a 240 s dissociation phase. After each cycle, the surface was regenerated with magnesium chloride.

[10] = biological target: T2, extracellular domain of human CD47 …; assay: SPR (Biacore T200), IgG1 captured on CM5 chip, CD47 as analyte; the column head also prints x 10^-3, not applied because kd/ka of the cells gives the KD cell in M [Con't]
Method: as §6

[11] = biological target: T1, hCD47 protein (SPR analyte of Example 2); assay: SPR, antibody captured by anti-human Fc antibodies on CM5 chip, hGPC3 injected first, then hCD47
[12] = biological target: T3, hGPC3-ΔHS; assay: SPR (Biacore T200), IgG1 captured on protein A/G CM5 chip, antigen printed as human GPC3 (hGPC3-ΔHS by paragraph 180) as analyte
Method: as §1

[13] = biological target: T4, mFcγRI; assay: SPR (Biacore T200), antibody captured on the chip, serially diluted mFcγRI as analyte; concentrations not given
T4 construct: Named singly only on the sheet; the text speaks of mFcγRs as a group; also called mouse Fcγ receptor I; one of the mFcγRs
T4 chain: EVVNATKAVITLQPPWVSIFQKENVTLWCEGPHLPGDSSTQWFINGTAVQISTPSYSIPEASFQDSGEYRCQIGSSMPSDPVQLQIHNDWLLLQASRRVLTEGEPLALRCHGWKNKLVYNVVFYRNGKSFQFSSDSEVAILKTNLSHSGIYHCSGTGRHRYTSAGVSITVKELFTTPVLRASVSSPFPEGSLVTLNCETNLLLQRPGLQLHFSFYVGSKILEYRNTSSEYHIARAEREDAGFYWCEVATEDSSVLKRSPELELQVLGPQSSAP

Kd [1]: 1.11 nM | koff [1]: 0.000753 s⁻¹ | kon [1]: 679000 M⁻¹ s⁻¹ | kon [2]: 557000 M⁻¹ s⁻¹ | EC50 (read off the curve) [3]: ~0.01 nM | IC50 (read off the curve) [4]: ~3 nM | EC50 (read off the curve) [5]: ~0.01 nM | binding result [6]: no binding | Kd [7]: 2.22 nM | IC50 (read off the curve) [8]: ~3 nM | Kd [9]: 1.62 nM | koff [9]: 0.00117 s⁻¹ | kon [9]: 721000 M⁻¹ s⁻¹ | koff [10]: 0.00123 s⁻¹
B1: BC18 full-length human IgG1 (antibody, V domains shown)
VH: QVQLQQSGPGLVKPSETLSLTCTVSGDSINYHYWSWIRQPPGKGLEWIGYIYYSGSTTYNPSLKSRVTMSVDPSKNHFSLKLTSVTAADTALYFCARQRGAYDYWGQGTQVTVSS
VL: DIQLTQSPSSVSASVGDRVTIACRASQDIGSRLVWYQQRPGKAPKLLIYAASSLQSGVPSRFSGSGSGTDFTLTISSLQPEDFATYYCQQSYSTPYSFGQGTKLEIK
notes: also called anti-CD47 mAb; parental anti-CD47 mAb

binding result [11]: no binding | Kd [12]: 1.29 nM | koff [12]: 0.000275 s⁻¹ | kon [12]: 213000 M⁻¹ s⁻¹
B2: GC33 (Codrituzumab), human IgG1 (antibody, V domains shown)
VH: QVQLVQSGAEVKKPGASVKVSCKASGYTFTDYEMHWVRQAPGQGLEWMGALDPKTGDTAYSQKFKGRVTLTADESTSTAYMELSSLRSEDTAVYYCTRFYSYTYWGQGTLVTVSS
VL: DVVMTQSPLSLPVTPGEPASISCRSSQSLVHSNANTYLHWYLQKPGQSPQLLIYKVSNRFSGVPDRFSGSGSGTDFTLKISRVEAEDVGVYYCSQNTHVPPTFGQGTKLEIK
notes: also called anti-GPC3 mAb

binding result [13]: no binding
B3: GPC3/CD47-DANG (bispecific antibody)
heavy 1: QVQLVQSGAEVKKPGASVKVSCKASGYTFTDYEMHWVRQAPGQGLEWMGALDPKTGDTAYSQKFKGRVTLTADESTSTAYMELSSLRSEDTAVYYCTRFYSYTYWGQGTLVTVSSASTKGPSVFPLAPSSKSTSGGTAALGCLVKDYFPEPVTVSWNSGALTSGVHTFPAVLQSSGLYSLSSVVTVPSSSLGTQTYICNVNHKPSNTKVDKKAEPKSCDKTHTCPPCPAPELLGGPSVFLFPPKPKDTLMISRTPEVTCVVVAVSHEDPEVKFNWYVDGVEVHNAKTKPREEQYGSTYRVVSVLTVLHQDWLNGKEYKCKVSNKALPAPIEKTISKAKGQPREPQVYTLPPCRDELTKNQVSLWCLVKGFYPSDIAVEWESNGQPENNYKTTPPVLDSDGSFFLYSKLTVDKSRWQQGNVFSCSVMHEALHNHYTQKSLSLSPGK
light 1: DVVMTQSPLSLPVTPGEPASISCRSSQSLVHSNANTYLHWYLQKPGQSPQLLIYKVSNRFSGVPDRFSGSGSGTDFTLKISRVEAEDVGVYYCSQNTHVPPTFGQGTKLEIKRTVAAPSVFIFPPSDEQLKSGTASVVCLLNNFYPREAKVQWKVDNALQSGNSQESVTEQDSKDSTYSLSSTLTLSKADYEKHKVYACEVTHQGLSSPVTKSFNRGEC
heavy 2: QVQLQESGPGLVKPSETLSLTCTVSGDSINYHYWSWIRQPPGKGLEWIGYIYYSGSTTYNPSLKSRVTMSVDPSKNHFSLKLTSVTAADTALYFCARQRGAYDYWGQGTLVTVSSASVAAPSVFIFPPSDEQLKSGTASVVCLLNNFYPREAKVQWKVDNALQSGNSQESVTEQDSKDSTYSLSSTLTLSKADYEKHKVYACEVTHQGLSSPVTKSFNRGECDKTHTCPPCPAPELLGGPSVFLFPPKPKDTLMISRTPEVTCVVVAVSHEDPEVKFNWYVDGVEVHNAKTKPREEQYGSTYRVVSVLTVLHQDWLNGKEYKCKVSNKALPAPIEKTISKAKGQPREPQVCTLPPSRDELTKNQVSLSCAVKGFYPSDIAVEWESNGQPENNYKTTPPVLDSDGSFFLVSKLTVDKSRWQQGNVFSCSVMHEALHNHYTQKSLSLSPGK
light 2: DIQLTQSPSSVSASVGDRVTIACRASQDIGSRLVWYQQRPGKAPKLLIYAASSLQSGVPSRFSGSGSGTDFTLTISSLQPEDFATYYCQQSYSTPYSFGQGTKLEIKSSASTKGPSVFPLAPSSKSTSGGTAALGCLVKDYFPEPVTVSWNSGALTSGVHTFPAVLQSSGLYSLSSVVTVPSSSLGTQTYICNVNHKPSNTKVDKKAEPKSC
notes: also called GPC3/CD47 biAb Fc variant; GPC3/CD47-DANG variant
